Reference: article PMC3979344 (Virology, 2013)

T1: nectin-1(346t), soluble nectin-1 (UniProt Q15223 31-346)
T1 sequence (looked up): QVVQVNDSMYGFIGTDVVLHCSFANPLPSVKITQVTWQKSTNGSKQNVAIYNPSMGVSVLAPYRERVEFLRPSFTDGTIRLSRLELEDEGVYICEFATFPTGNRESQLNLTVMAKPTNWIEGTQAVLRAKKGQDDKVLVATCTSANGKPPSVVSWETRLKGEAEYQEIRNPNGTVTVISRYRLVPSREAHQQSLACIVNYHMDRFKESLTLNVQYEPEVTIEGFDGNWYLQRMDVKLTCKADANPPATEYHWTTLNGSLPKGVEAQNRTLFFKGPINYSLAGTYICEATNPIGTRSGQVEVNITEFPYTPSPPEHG

B1: gD(306t), soluble ectodomain of HSV-1 glycoprotein D (domain or fragment)
chain: KYALADASLKMADPNRFRGKDLPVLDQLTDPPGVRRVYHIQAGLPDPFQPPSLPITVYYAVLERACRSVLLNAPSEAPQIVRGASEDVRKQPYNLTIAWFRMGGNCAIPITVMEYTECSYNKSLGACPIRTQPRWNYYDSFSAVSEDNLGFLMHAPAFETAGTYLRLVKINDWTEITQFILEHRAKGSCKYALPLRIPPSACLSPQAYQQGVTVDSIGMLPRFIPENQRTVAVYSLKIAGWHGPKAPYTSTLLPPELSETPNATQPELAPEDPEDSALLEDPVGTVAPQIPPNWHIPSIQDAATPY
B2: gD(23-285t) (domain or fragment)
chain: PVLDQLTDPPGVRRVYHIQAGLPDPFQPPSLPITVYYAVLERACRSVLLNAPSEAPQIVRGASEDVRKQPYNLTIAWFRMGGNCAIPITVMEYTECSYNKSLGACPIRTQPRWNYYDSFSAVSEDNLGFLMHAPAFETAGTYLRLVKINDWTEITQFILEHRAKGSCKYALPLRIPPSACLSPQAYQQGVTVDSIGMLPRFIPENQRTVAVYSLKIAGWHGPKAPYTSTLLPPELSETPNATQPELAPEDPEDSALLEDPVGT
B3: gD(285t) (domain or fragment)
chain: KYALADASLKMADPNRFRGKDLPVLDQLTDPPGVRRVYHIQAGLPDPFQPPSLPITVYYAVLERACRSVLLNAPSEAPQIVRGASEDVRKQPYNLTIAWFRMGGNCAIPITVMEYTECSYNKSLGACPIRTQPRWNYYDSFSAVSEDNLGFLMHAPAFETAGTYLRLVKINDWTEITQFILEHRAKGSCKYALPLRIPPSACLSPQAYQQGVTVDSIGMLPRFIPENQRTVAVYSLKIAGWHGPKAPYTSTLLPPELSETPNATQPELAPEDPEDSALLEDPVGT

Legend:
[1] = target: HVEM(200t), soluble herpesvirus entry mediator (UniProt Q92956); assay: SPR
[2] = target: T1, nectin-1(346t), soluble nectin-1; assay: SPR

| Molecule | Kd [1] | Kd [2] |
| --- | --- | --- |
| gD(3C-38C)306t (from UniProt Q69091 26-331) (domain or fragment) | 2390 nM | – |
| B1 | – | 1740 nM |
| B2 | – | 65.7 nM |
| B3 | – | 71.3 nM |
